“And” between values parts separate entries of the source, which are not always exact repeats. Equal entries are not always repeated.
Experiments:
[1] = target: T1, human recombinant IL-21 (expressed in E. coli as the mature peptide); residues 30-162 of SEQ ID NO: 1 with an … (human, UniProt Q9HBE4 30-162); assay: SPR Biacore T200, 25 C; mAb captured by anti-human Fc, IL-21 analyte, 1:1 Langmuir
T1 construct: The SPR and cell assays say only IL-21 / hIL-21 / recombinant human IL-21; also called hIL-21; human IL-21
T1 sequence (Q9HBE4 other isoform, or with tags, fused parts or gaps): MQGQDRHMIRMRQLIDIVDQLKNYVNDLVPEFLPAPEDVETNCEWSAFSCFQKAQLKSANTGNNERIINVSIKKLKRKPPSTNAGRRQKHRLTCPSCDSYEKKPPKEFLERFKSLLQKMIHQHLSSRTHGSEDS
Description: (§1) Experiments were run at 25° C. and the samples were stored at 10° C. in the sample compartment. The signal (RU, response units) reported by the Biacore is directly correlated to the mass on the individual sensor chip surfaces in four serial flow cells.
Anti-human Fc monoclonal antibody from Biacore human Fc capture kit was immobilized onto flow cells of a CM4 sensor chip according to the manufacturer's instructions. The final immobilization level of capture antibody was approximately 2,000 RU in one experiment. […] Capture of the human anti-IL-21 antibody mAb37 was conducted by diluting the antibody to 0.1 μg/ml into running buffer (10 mM Hepes 0.3 M NaCl, 5 mM CaCl2, 0.05% surfactant P20, pH 8.0 containing 1 mg/ml BSA) and injected at 10 μl/min for 180 s in one of flow cells 2-4, creating a reference surface in flow cell 1 with only anti-Fc antibody immobilized. […] Binding of IL-21 protein was conducted by injecting analyte over all flow cells to allow for comparative analyses of binding to different captured anti-IL-21 antibodies relative to binding to the reference flow cell. IL-21 protein was diluted serially 1:3 to 0.2-54 nM into running buffer, injected at 100 μl/min for 210 s and allowed to dissociate for 600 or 14000 s. The CM4 surface was regenerated after each injection cycle of analyte via two injections of 3M MgCl₂ at 50 μl/min. This regeneration step removed the anti-IL-21 antibody and any bound IL-21 from the immobilized capture antibody surface, and allowed for the subsequent binding of the next interaction sample pair. […] No significant non-specific binding to the reference control surface was observed.

[2] = target: T1, human recombinant IL-21 (expressed in …); assay: SPR Biacore T200, calculated KD; Exp 1
Description: (§2) Anti-human Fc monoclonal antibodies from Biacore human Fc capture kit was immobilized onto flow cells of a CM4 sensor chip according to the manufacturer's instructions. The final immobilization level of capture antibody was approximately 2,500 RU in one experiment. […] Binding of hIL-21 protein was conducted by injecting analyte over all flow cells to allow for comparative analyses of binding to different captured anti-IL-21 antibodies relative to binding to the reference flow cell. hIL-21 protein was diluted serially 1:3 to 2-162 nM into running buffer, injected at 100 μl/min for 210 s and allowed to dissociate for 600 or 14000 s. The CM4 surface was regenerated after each injection cycle of analyte via two injections of 3M MgCl₂ at 50 μl/min. This regeneration step removed the anti-IL-21 antibody and any bound IL-21 from the immobilized capture antibody surface, and allowed for the subsequent binding of the next interaction sample pair.
(§3) No significant non-specific binding to the reference control surface was observed. Binding curves were processed by double referencing (subtraction of reference surface signals as well as blank buffer injections over captured anti-IL-21 antibodies). This allowed correction for instrument noise, bulk shift and drift during sample injections.

[3] = target: T1, human recombinant IL-21 (expressed in …); assay: cell-based or functional assay
[4] = target: T1, human recombinant IL-21 (expressed in …); assay: SPR Biacore T200, 25 C; mAb captured by anti-human Fc, IL-21 analyte, 1:1 Langmuir; remark: listed apart in the source
Description: as §1
Anti-human Fc monoclonal antibody from Biacore human Fc capture kit was immobilized onto flow cells of a CM4 sensor chip according to the manufacturer's instructions. The final immobilization level of capture antibody was approximately 2,000 RU in one experiment. […] Capture of the human anti-IL-21 antibody mAb37 was conducted by diluting the antibody to 0.1 μg/ml into running buffer (10 mM Hepes 0.3 M NaCl, 5 mM CaCl2, 0.05% surfactant P20, pH 8.0 containing 1 mg/ml BSA) and injected at 10 μl/min for 180 s in one of flow cells 2-4, creating a reference surface in flow cell 1 with only anti-Fc antibody immobilized. […] Binding of IL-21 protein was conducted by injecting analyte over all flow cells to allow for comparative analyses of binding to different captured anti-IL-21 antibodies relative to binding to the reference flow cell. IL-21 protein was diluted serially 1:3 to 0.2-54 nM into running buffer, injected at 100 μl/min for 210 s and allowed to dissociate for 600 or 14000 s. The CM4 surface was regenerated after each injection cycle of analyte via two injections of 3M MgCl₂ at 50 μl/min. […]

[5] = target: T1, human recombinant IL-21 (expressed in …); assay: SPR Biacore T200, 25 C; mAb captured by anti-human Fc, hIL-21 analyte, 1:1 Langmuir; Exp 2
Description: as §2, §3

[6] = target: T1, human recombinant IL-21 (expressed in …); assay: SPR Biacore T200, 25 C; mAb captured by anti-human Fc, hIL-21 analyte, 1:1 Langmuir; Exp 1
Description: as §2, §3

[7] = target: T1, human recombinant IL-21 (expressed in …); assay: SPR Biacore T200, calculated KD; Exp 2
Description: as §2, §3

B1: mAb37 (hinge stabilized S241P version of mAb14) (antibody, human IgG4 S228P, kappa)
heavy: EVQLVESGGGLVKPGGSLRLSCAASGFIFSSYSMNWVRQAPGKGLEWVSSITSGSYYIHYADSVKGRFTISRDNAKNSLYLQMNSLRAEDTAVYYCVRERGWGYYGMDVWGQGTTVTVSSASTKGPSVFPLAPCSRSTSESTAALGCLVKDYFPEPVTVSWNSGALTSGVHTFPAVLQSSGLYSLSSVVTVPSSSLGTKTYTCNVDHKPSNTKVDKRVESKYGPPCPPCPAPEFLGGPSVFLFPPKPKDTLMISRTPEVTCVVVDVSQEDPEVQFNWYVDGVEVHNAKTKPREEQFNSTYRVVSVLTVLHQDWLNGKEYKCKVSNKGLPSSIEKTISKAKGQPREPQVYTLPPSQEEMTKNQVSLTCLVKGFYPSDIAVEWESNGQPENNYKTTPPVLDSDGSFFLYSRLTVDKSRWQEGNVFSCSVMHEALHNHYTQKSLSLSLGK
light: AIQLTQSPSSLSASVGDRVTITCRASQDIDSALAWYQQKPGKAPKILIHDASSLESGVPSRFSGSGSGTDFTLTISSLQPEDFATYYCQQFNSYPYTFGQGTKLEIKRTVAAPSVFIFPPSDEQLKSGTASVVCLLNNFYPREAKVQWKVDNALQSGNSQESVTEQDSKDSTYSLSSTLTLSKADYEKHKVYACEVTHQGLSSPVTKSFNRGEC
notes: Human IgG4(S241P), kappa; recombinant from HEK293-6E; also called WT mAb37
- Kd [1]: 0.007 nM and 0.0075 nM and 0.011 nM
- koff [1]: 4.5e-06 s⁻¹ and 6.4e-06 s⁻¹
- kon [1]: 640000 M⁻¹ s⁻¹ and 600000 M⁻¹ s⁻¹
- Kd [2]: < 0.017 nM
- IC50 (nM) in B cell proliferation assay, Donor 1 [3]: 0.14 nM
- IC50 (nM) in B cell proliferation assay, Donor 2 [3]: 0.18 nM
- Kd [4]: < 0.02 nM
- koff [5]: < 1e-05 s⁻¹
- kon [5]: 660000 M⁻¹ s⁻¹ and 620000 M⁻¹ s⁻¹
- koff [6]: < 1e-05 s⁻¹
- kon [6]: 570000 M⁻¹ s⁻¹ and 590000 M⁻¹ s⁻¹ and 580000 M⁻¹ s⁻¹
- Kd [7]: < 0.015 nM
